# B1: S64V-EmrE (natural protein, E. coli, UniProt P23895 1-110, looked up)
# chain: MNPYIYLGGAILAEVIGTTLMKFSEGFTRLWPSVGTIICYCASFWLLAQTLAYIPTGIAYAIWVGVGIVLISLLSWGFFGQRLDLPAIIGMMLICAGVLIINLLSRSTPH
# notes: also called EmrE mutant S64V; EmrE S64V
# Target: the molecule itself
# Test: solid-state NMR (magic-angle spinning, 13C-detected resonance assignment); S64V-EmrE in POPC proteoliposomes, 25:1 lipid/EmrE monomer, pH 5.8; 2D NCA shows separate peaks for chain A and chain B
protein,measurement,value
B1,binding result,binds

# Source: publication PMC12513983, “Backbone and sidechain ^1H, ^15N and ^13C resonance assignments of a multidrug efflux membrane protein using solution and solid-state NMR” (Biomolecular Nmr Assignments, 2025)
